For one molecule, pKd results are on record in PMC9482650, “Quantitative fragmentomics allow affinity mapping of interactomes” (Nature Communications, 2022).

One may read the pKd as −log10 of the Kd, conventionally taken in molar units.

Targets include DLG1_1, Q12959; DLG1_3, Q12959; DLG4_1, P78352; Inadl_3, Q8NI35; Inadl_4, Q8NI35; Inadl_9, Q8NI35; MAGI1_2, Q96QZ7; MAGI2_5, Q86UL8.
What all share (experiment): holdup assay
Set-up in all cases: key: below the threshold = too weak to quantify, mostly under pKd 3.1 to 4
What all share (settings): plain residues with an end cap or a label only (N-terminal biotin on a linker: gsgsgs; C-terminal amide)

The target of a further experiment is T1, APBA1_1, Q02410.
T1 sequence (Q02410 651-752, limits assumed, looked up): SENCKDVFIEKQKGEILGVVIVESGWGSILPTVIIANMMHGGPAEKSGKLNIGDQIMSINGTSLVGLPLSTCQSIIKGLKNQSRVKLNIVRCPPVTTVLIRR

A further experiment deals with T2, APBA2_1, Q99767.
T2 sequence (Q99767 563-664, limits assumed, looked up): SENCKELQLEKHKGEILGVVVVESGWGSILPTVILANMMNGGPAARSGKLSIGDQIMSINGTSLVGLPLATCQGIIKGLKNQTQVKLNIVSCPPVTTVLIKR

In another experiment the target is T3, APBA2_2, Q99767.
T3 sequence (Q99767 654-744, limits assumed, looked up): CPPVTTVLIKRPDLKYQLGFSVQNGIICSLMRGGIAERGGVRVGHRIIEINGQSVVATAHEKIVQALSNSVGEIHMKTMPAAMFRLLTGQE

For a further experiment, the target named is T4, DFNB31_3, Q9P202.
T4 sequence (Q9P202 811-907, limits assumed, looked up): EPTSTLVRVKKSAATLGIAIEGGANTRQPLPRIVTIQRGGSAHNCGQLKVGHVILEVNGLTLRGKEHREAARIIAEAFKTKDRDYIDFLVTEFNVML

A further experiment has as its target T5, GRIP1_2, Q9Y3R0.
T5 sequence (Q9Y3R0 145-248, limits assumed, looked up): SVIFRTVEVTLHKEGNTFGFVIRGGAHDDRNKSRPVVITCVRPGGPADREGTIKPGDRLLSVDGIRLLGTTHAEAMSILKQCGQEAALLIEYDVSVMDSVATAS

In the next experiment the target is T6, GRIP1_3, Q9Y3R0.
T6 sequence (Q9Y3R0 247-346, limits assumed, looked up): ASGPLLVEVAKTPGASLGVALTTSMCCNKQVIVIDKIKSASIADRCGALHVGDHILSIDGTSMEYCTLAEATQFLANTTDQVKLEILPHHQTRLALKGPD

Another experiment has as its target T7, HTRA4, P83105.
T7 sequence (P83105 378-476, limits assumed, looked up): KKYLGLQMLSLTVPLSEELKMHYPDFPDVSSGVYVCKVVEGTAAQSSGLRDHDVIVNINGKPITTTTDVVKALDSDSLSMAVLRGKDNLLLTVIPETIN

Another experiment deals with T8, LIN7C, Q9NUP9.
T8 sequence (Q9NUP9 88-185, limits assumed, looked up): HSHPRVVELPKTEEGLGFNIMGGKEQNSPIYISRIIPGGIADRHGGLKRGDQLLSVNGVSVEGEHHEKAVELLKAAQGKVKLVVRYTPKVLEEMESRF

The target in the next experiment is T9, PDZD7_3, Q9H5P4.
T9 sequence (Q9H5P4 857-944, limits assumed, looked up): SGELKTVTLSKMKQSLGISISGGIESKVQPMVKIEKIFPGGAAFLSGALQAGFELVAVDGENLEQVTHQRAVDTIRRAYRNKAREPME

In another experiment the target is T10, RAPGEF6, Q8TEU7.
T10 sequence (Q8TEU7 525-625, limits assumed, looked up): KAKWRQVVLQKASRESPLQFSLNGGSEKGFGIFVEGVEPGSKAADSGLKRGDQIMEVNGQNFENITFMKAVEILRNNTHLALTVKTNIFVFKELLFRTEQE

The target in a further experiment is T11, SNTA1, Q13424.
T11 sequence (Q13424 82-180, limits assumed, looked up): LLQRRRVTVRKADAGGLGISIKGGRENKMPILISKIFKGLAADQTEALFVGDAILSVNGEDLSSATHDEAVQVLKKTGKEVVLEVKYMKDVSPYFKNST

Another experiment concerns the target T12, SYNJ2BP, P57105.
T12 sequence (P57105 8-110, limits assumed, looked up): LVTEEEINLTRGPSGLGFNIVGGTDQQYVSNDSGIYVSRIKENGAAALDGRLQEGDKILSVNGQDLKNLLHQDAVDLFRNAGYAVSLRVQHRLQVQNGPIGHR

The target of the next experiment is T13, TIAM2, Q8IVF5.
T13 sequence (Q8IVF5 885-986, limits assumed, looked up): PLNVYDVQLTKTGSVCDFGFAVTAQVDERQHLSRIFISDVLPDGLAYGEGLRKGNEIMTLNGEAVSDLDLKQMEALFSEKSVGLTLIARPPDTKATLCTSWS

The target of a further experiment is T14, TX1BP3, O14907.
T14 sequence (O14907 10-122, limits assumed, looked up): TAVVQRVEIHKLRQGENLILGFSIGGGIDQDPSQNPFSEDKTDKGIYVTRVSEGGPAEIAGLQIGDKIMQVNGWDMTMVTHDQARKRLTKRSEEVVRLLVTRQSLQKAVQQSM

Sequence of Inadl_9, Q8NI35 (Q8NI35 1530-1615): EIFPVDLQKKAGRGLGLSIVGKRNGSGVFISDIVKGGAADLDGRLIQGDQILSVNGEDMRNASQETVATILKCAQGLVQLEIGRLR
Sequence of MAGI1_2, Q96QZ7 (Q96QZ7 456-580): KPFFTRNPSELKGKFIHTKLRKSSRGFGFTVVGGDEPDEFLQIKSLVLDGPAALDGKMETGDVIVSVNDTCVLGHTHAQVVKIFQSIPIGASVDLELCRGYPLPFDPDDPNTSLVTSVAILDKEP
Sequence of MAGI2_5, Q86UL8 (Q86UL8 915-1017): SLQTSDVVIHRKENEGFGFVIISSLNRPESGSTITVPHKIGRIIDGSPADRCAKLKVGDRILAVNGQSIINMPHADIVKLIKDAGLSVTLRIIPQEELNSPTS
Sequence of Inadl_4, Q8NI35 (Q8NI35 547-651): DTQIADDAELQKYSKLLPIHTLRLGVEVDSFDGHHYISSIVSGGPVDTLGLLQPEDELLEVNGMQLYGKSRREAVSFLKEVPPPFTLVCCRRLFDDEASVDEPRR
Sequence of Inadl_3, Q8NI35 (Q8NI35 359-469): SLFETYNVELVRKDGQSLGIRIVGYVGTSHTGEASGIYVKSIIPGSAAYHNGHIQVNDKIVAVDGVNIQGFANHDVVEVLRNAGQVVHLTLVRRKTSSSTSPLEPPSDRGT
Sequence of DLG4_1, P78352 (P78352 62-152): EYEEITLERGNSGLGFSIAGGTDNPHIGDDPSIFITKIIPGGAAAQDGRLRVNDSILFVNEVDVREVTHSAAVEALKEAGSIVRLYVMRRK

Regarding VSVDDVRSTSQGLSSY [DFNB31_int, Q9P202], the negative logarithm of the Kd (pKd) result is “below the threshold” with APBA1_1, Q02410; “below the threshold” with APBA2_1, Q99767; “below the threshold” with APBA2_2, Q99767; 4.02 with DFNB31_3, Q9P202; “below the threshold” with DLG1_1, Q12959; “below the threshold” with DLG1_3, Q12959. Moreover, the pKd result in the experiment with DLG4_1, P78352 was “below the threshold”; with GRIP1_2, Q9Y3R0, “below the threshold”; with GRIP1_3, Q9Y3R0 it was “below the threshold”; with HTRA4, P83105, “below the threshold”; with Inadl_3, Q8NI35, “below the threshold”; with Inadl_4, Q8NI35, “below the threshold”. For the same molecule, the pKd result is “below the threshold” with Inadl_9, Q8NI35; 4.12 with LIN7C, Q9NUP9; “below the threshold” with MAGI1_2, Q96QZ7; “below the threshold” with MAGI2_5, Q86UL8; 3.8 in the experiment with PDZD7_3, Q9H5P4; “below the threshold” in the experiment with RAPGEF6, Q8TEU7. For the same molecule, the pKd result in the experiment with SNTA1, Q13424 is “below the threshold”; in the experiment with SYNJ2BP, P57105, “below the threshold”; with TIAM2, Q8IVF5, 3.85; with TX1BP3, O14907 it was “below the threshold”.
